Experimental findings from US20210145973A1 (CITY OF HOPE, published 2021) are described below.

Where no end group is shown, it is not given here. phosphorothioated ssDNA 20mer = not defined here

Assay [1] concerns the target T1, STAT3 protein (human, UniProt P40763 2-770).
T1 construct: Endogenous STAT3 of human cells (U251, HepG2) or of HCT116 xenograft tumor homogenates
Nature of the assay: immunoprecipitation of the FITC-labeled peptide, Western blotting, U251 cells (FIG. 20E, 20F). From the text:
(§1) FIGS. 20A-20I: Conjugating phosphorothioated DNA oligonucleotides (PS) enables acetyl-STAT3 peptide cell penetration and specific interaction with STAT3 and exportin 7 proteins as well as downregulation of STAT3 activation. FIG. 20A. Phosphorothioated DNA oligonucleotide-modified STAT3 peptides efficiently penetrate human glioma cell line U251 and human colon cancer cell line HCT116, as assessed by flow cytometry. FIG. 20B. Cell penetration of the PS-acetyl-STAT3 peptide and its colocalization with STAT3 protein in U251 cells are shown by confocal microscopy. Scale, 50 μm. FIG. 20C and FIG. 20D. The PS acetyl-STAT3 peptide specifically binds to acetylated STAT3 protein and exportin 7, as assessed by ELISA, in which the plate is coated by an acetylated-STAT3 protein (containing amino acids 127-722), n=3. FIG. 20E and FIG. 20F. The specific interaction between acetyl-STAT3 peptide and STAT3/exportin 7 shown by immunoprecipitation of the FITC-labeled PS-acetyl-STAT3 peptide followed by Western blotting, shown in U251 cells. FIG. 20G. Downregulation of STAT3 phosphorylation, shown in HCT116 tumors by immunoprecipitation/Western blotting. FIG. 20H. […]
(§2) The PS acetyl-STAT3 peptide specifically binds to acetylated STAT3 protein and exportin 7, as assessed by ELISA, in which the plate is coated by an acetylated-STAT3 protein (containing amino acids 127-722), n=3 (FIG. 20C and FIG. 20D). […]

Assay [2] has as its target T2, acetylated-STAT3 protein (containing amino acids 127-722) (Homo sapiens (Human), UniProt P40763 127-722, acetylated (site not stated for this protein)).
T2 construct: Coated on the ELISA plate
Nature of the assay: ELISA, plate coated with acetylated-STAT3 protein (amino acids 127-722), n=3 (FIG. 20C, 20D).
From the text: as §1, §2
For orientation: An ELISA detects its analyte on a solid surface through an enzyme-linked reagent.

T1 sequence (P40763 2-770 limits assumed): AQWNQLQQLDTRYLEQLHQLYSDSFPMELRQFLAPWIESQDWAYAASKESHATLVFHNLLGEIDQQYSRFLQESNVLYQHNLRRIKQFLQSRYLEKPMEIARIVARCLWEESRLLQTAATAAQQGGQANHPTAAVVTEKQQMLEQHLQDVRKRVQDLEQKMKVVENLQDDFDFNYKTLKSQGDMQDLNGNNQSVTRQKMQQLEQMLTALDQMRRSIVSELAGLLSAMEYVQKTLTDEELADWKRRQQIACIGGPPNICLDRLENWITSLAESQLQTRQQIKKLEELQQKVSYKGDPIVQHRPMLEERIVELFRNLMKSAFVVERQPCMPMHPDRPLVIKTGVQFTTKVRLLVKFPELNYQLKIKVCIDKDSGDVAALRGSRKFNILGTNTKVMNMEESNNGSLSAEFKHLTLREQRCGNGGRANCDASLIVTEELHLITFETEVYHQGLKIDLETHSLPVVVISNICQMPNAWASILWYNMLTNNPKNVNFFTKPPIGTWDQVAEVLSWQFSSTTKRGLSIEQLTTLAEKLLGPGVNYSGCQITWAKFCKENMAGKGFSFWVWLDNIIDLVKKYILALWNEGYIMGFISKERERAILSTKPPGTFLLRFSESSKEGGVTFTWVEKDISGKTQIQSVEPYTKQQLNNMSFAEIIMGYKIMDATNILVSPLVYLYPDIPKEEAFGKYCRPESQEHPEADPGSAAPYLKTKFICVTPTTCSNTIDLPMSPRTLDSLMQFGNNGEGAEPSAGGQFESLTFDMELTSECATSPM
T2 sequence (P40763 127-722): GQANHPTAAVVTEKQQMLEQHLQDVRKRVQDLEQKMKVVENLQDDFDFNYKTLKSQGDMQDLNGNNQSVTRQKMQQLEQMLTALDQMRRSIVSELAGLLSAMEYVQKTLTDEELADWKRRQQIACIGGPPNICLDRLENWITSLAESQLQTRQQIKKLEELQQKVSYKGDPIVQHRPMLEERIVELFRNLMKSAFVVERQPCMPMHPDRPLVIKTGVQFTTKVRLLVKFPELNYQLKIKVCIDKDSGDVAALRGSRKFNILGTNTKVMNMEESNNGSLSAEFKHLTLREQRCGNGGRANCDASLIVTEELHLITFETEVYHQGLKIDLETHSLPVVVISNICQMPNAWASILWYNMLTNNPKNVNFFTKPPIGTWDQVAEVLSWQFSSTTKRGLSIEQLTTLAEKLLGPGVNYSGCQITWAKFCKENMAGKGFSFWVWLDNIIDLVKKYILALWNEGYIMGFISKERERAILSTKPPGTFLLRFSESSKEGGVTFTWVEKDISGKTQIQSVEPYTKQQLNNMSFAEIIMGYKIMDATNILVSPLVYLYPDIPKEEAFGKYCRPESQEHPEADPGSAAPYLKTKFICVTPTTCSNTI

B1: PS-acetyl-STAT3 peptide (STAT3-acet.K685 peptide elongated at its C-terminus with a phosphorothioated ssDNA 20mer, FITC-labeled) (peptide)
peptide: PDIPKEEAFGK(Ac)YCRPESQEHPC-{hydrazide linker with FITC (Fam dT)-phosphorothioated ssDNA 20mer}
modifications: cysteine pairing not given here; reading uncertain
notes: Peptide-oligonucleotide conjugate; only the peptide part is a polypeptide; The FITC in the linker was used as the tag for precipitation
For the molecule B1, the binding result in assay [1] and in assay [2] was “binds” in each case.
